The record followed here is the DeepSol protein solubility set.

A short description of this data set: soluble on expression in E. coli; label from the status in PepcDB or PDB records.
As for “MGSDKIHHHHHHMNYTNEVAKMTCVAKGPNHGPAPIPEEGKWVSAKEIKDISGLTHGVGRCAPQQGACKLTLNVKEGIIQEALVETIGCSGMTHSAAMAAEILSGKTILEALNTDLVCDAINTAMRELFLQIVYGRTQTAFSEGGLPVGAGLEDLGKGHRSQVGTMYSSAAKGPRYLEMVEGYVTKTGLDENNEIIGYEFINFGKMMDMIKQGMDANEAMKKATGNYGRFADAVKVIDPREE”, the “soluble on expression in E. coli” value is “not soluble”. The result for “MGSDKIHHHHHHMSEENKIGTYQFVAEPFHVDFNGRLTMGVLGNHLLNCAGFHASDRGFGIATLNEDNYTWVLSRLAIELDEMPYQYEKFSVQTWVENVYRLFTDRNFAVIDKDGKKIGYARSVWAMINLNTRKPADLLALHGGSIVDYICDEPCPIEKPSRIKVTSNQPVATLTAKYSDIDINGHVNSIRYIEHILDLFPIELYQTKRIRRFEMAYVAESYFGDELSFFCDEVSENEFHVEVKKNGSEVVCRSKVIFE” reads “not soluble”; that for “MKLAARVESVSPSMTLIIDAKAKAMKAEGIDVCSFSAGEPDFNTPKHIVEAAKAALEQGKTRYGPAAGEPRLREAIAQKLQRDNGLCYGADNILVTNGGKQSIFNLMLAMIEPGDEVIIPAPFWVSYPEMVKLAEGTPVILPTTVETQFKVSPEQIRQAITPKTKLLVFNTPSNPTGMVYTPDEVRAIAQVAVEAGLWVLSDEIYEKILYDDAQHLSIGAASPEAYERSVVCSGFAKTYAMTGWRVGFLAGPVPLVKAATKIQGHSTSNVCTFAQYGAIAAYENSQDCVQEMLAAFAERRRYMLDALNAMPGLECPKPDGAFYMFPSIAKTGRSSLDFCSELLDQHQVATVPGAAFGADDCIRLSYATDLDTIKRGMERLEKFLHGIL”, “soluble”.

For the sequence “MREELIEKIKKAGVVGAGGAGFPTHVKVNSKARTVLVNGAECEPLLRVDQQLMAGQASKVVMGLELVMSVTGAKEGIISLKHKYHDAISALEKEISGKPIRIHILDDFYPAGDEHVTVYESTGRLVPQGSIPLKVDCVVHNVETLLNTVDAVADQPVTDTYLTITGEVNQPLTLRLPIGTAISEALAMAGYHDSGGMQVIEGGPMMGKIVADLHQPITKTTKGLIVLPREHPLLRLKTLPADKVLRQSRVSCVQCRFCTDLCPRYLLGHQLEPHKIMRMVNYGQGQEETMKMAFACSECGVCEQYACIMGLSPRAVNALLKKELTRLGIKPSPSPADQAVDPLQPHRKIPVKRLISRLALQDYDRNAPLQERDYPIDRVAIKLCQHVGAPSVPTVKAGQKVKKGDPIASPPAKGLGSYLHASIDGVVQEITDSILISARKGSETQPWNPSV”, the “soluble on expression in E. coli” value is recorded as “not soluble”. Then “SNAMNIQALLSEKVSQALIAAGAPADCEPQVRQSAKVQFGDYQANGVMAVAKKLGMAPRQLAEQVLSHLDLNGIANKVEIAGPGFINIFLDPAFLADNVNRALQSERLG”, with “soluble”; and “MGSDKIHHHHHHMARRKEHSHDEIRVMAIEAAIALLQQQGVQGLSLRKIASEIGYVPSTLINIFGSYNYLLLAVSEATLQLLMSHLSAVSENDSLRHIIVMAQKYSEFAHSQRQCFKLVFELQLLESEHLPASQGQLIANLFRLIENELALLFPNETIEQQLQMSRVLWGGIHGLTALSLDNKLFADTVSLPALLESHVTGYLQGMGYQREEACC”, with “not soluble”.

As to “SLRLTQGLFRFPLAGLLCLSTAAFAESQLSVRVTPANAALKANIEAYVGSLGERDEAALQRFRRNAEAQAEKAAQALGYFQAQIDSEVKDGKPPKLTLKVVPGEPVRLRQVNIQVLGEAASLESFRLPSGKQLKPGAKLNQGVYEDAKRLIQNQASRYGFFQGRFSTQRLSIDPRAGIADIDLVYDSGQRYTFGKVSFDGDSIIEEELLRRMVPFKAGQPYDSELIAELNQNLQSSGYFEGVRVDAAPTQAQADGARQAIPVAVRLEARKPRTMGVGLGFSTDVGARARFNWTRHWVNAEGHSLGFESEISAPRQNVGAWYEIPLDPPLTDKLRFTSGYQFEDLVDTESKLLTLGGEWHSKRPDGWQRVVSLNWMREEYKLGDDSGLSSFLMPGIGYSLLETDNKVDPSHGYRLQFNVKGAKEGLLADADVLHVDAMAKGLTSFAGGHRLLGRLQVGGIATNDYKSIPPSLRFFAGGDQSVRGYDYRTLSPENSDGDKIGGRYMIAGSVEYQYPLAERWRLATFVDQGNAFNSLDFPSIKTGVGFGVRWVSPVGPLRLDLAHALDDDGGFRLHFSMGPEL”, the “soluble on expression in E. coli” value is on record as “soluble”. Regarding “MKTAEAAKGRWPEILEHFDLPPITGKNHYRGECPVCGARGKFRIDDRDGAGTWICVCGSGDGMKLVTLTQGKPFNEICTEIDRLIGNDYQRVKIPVNSSATSLRKRVLSKFSKLEALRGTSGAAYLNSRGIFNLPAEAIRFNARQRHNGCVFQSLYSLATDDKGELCYLHQTLLDGAKKADIGSSSKRLKSLQEDNYLDHARSVAIRMFPVASTLGIAEGIETALSAHQIYKVNTWATINSGFMKKFRVPAGVLHLIIFADRDENSATGLAAAYECAHANLMAKNDLQRVSVYWPDHGDFNNMLMNGDQVRELVFHKKKVAA”, the “soluble on expression in E. coli” value was “not soluble”. For the sequence “MGSDKIHHHHHHMFIINELNKIVNEEVISFHMPGHKKGQVYKKLGYKDILKNLYKMDTTEILGTDNLHFPEGIIKNSQKKASRVFKSDYTCYLVNGSSCGIQSAIMSVCSPKSKIITNRDCHQSVINGCILGDIDIEYVPCEISEETNVLKGISISNVIDIIDKNLDAKAVLLTYPTYYGMTYDLEYICNYAHSKKMVVIVDEAHGAHLGLSERLPKTALEQGADIVVQSTHKTLPAFTQSSMIHIQGDRVDIDKILNMLRITESSSPSYLLLSSLELAVDIYENKGKELMEELLNNIITFKNKVDSNINIYDTNDKTKIFISSKNMGLTGYELENILRNKYNIQVELSNYYGVLLICTIGNTAEDFSSLETALNNVVKEDFKFEKLENKKYPVVIPKKILTPREAFYKTKKSVKIYDSIGKVCGECIVPYPPGISVISPGEVISKEIIDYLMFCHSKGMIVSGLKDVDLNFIQVIDLEDI”, the “soluble on expression in E. coli” value is on record as “not soluble”. As for “MGSDKIHHHHHHMHDKFLNYFDETARQGSIRKAAAVLNMSSSSLNRKIISTENRLGIRLFDRHADGVTLTEAGVVVLEHCRNTLFDYQRIVNMVEDIRDMRTGHIDILTLDSIALSVLPEVLDDFQDAYPQVAYTIQTDEPHAVMQAVANGTADIGLSFSNDLHPDVRCQAEKSTPIGAIMAHDHPLAERDLIEVGDLAPYQLIRSYDSQTHRSFVNEAVSSLGVQLSTQMVTNSLPLAKTMILNGRGVGIYSKIGFIEEIEDGRLRYVAINSPLLRELRIGVLISARTGLLPVQHLLARALSKSLRSLRLDS”, the “soluble on expression in E. coli” value is given as “not soluble”.

Regarding “MNRWQRAWRHLCSTGWQARRQFPAAQLKRLERQIAESERAHRGQLRFVVESALDWRAAWRGMSARERALQWFGELRVWDTEDNTGVLVYLLLAERRIEIVADRGIHRLAPAGEWAGICADMQRAFAAGAHVEGLESGLRRIHALLLAHAPRNGEPFVNELPDQVVVRLEHHHHHH”, the “soluble on expression in E. coli” value is “not soluble”. The result for “MAIIKSPVFKDISEAEISEMTSAGFLRARKFRKKAIIYHVTDIVHEIGIVASGQVTIEYIDMWGNKAIMSNIAPGQVFAETYALSGEPLMVDAVASETSVVLFLNIRKLMDSQPENVHYKDTILNNLLHISIQKNLTLSNRIFCTSPKTIRDRLLIYLSNESRKAGCEEFSIPFDRQQLADYLNVDRTALSKELGKMRDDGLIEFRKNVFHLLSIC” reads “not soluble”; that for “MDIAEQLIQNAGKRSTPVRSAVLGVLLNAEDVLSHSEVLEHLQQLGAFDRVTVYRALDWLVTQGLVHKVAGAGRAWRFQVTRSESMHRHAHFQCHHCHKVFCLPEVQPVLPKELPSNFSIDSIELNIKGICADCGRAMMSQ”, “not soluble”. Regarding “MSLCGLLGILTANGNAEAFVPALERALPCMRHRGPDDAGTWHDADAAFGFNRLSIIDIAHSHQPLRWGPADEPDRYAMTFNGEIYNYVELRKELSDLGYAFNTSGDGEPIVVGFHHWGESVVEHLRGMFGIAIWDTKEKSLFLARDQFGIKPLFYATTEHGTVFSSEKKTILEMAEEMNLDLGLDKRTIEHYVDLQYVPEPDTLHAQISRLESGCTATVRPGGKLEQKRYFKPQFPVQKVVKGKEQDLFDRIAQVLEDSVEKHMRADVTVGSFLSGGIDSTAIAALAKRHNPDLLTFTTGFEREGYSEVDVAAESAAAIGAEHIVKIVSPEEYANAIPKIMWYLDDPVADPSLVPLYFVAAEARKHVKVVLSGEGADELFGGYTIYKEPLSLAPFEKIPSPLRKGLGKLSKVLPDGMKGKSLLERGSMTMEERYYGNARSFNFEQMQRVIPWAKREWDHREVTAPIYAQSRNFDPVARMQHLDLFTWMRGDILVKADKINMANSLELRVPFLDKEVFKVAETIPYDLKIANGTTKYALRRALEQIVPPHVLHRKKLGFPVPMRHWLAGDELFGWAQDTIKESGTEDIFNKQAVLDMLNEHRDGVSDHSRRLWTVLSFMVWHGIFVENRIDPQIEDRSYPVEEGHHHHHH”, the “soluble on expression in E. coli” value is “soluble”. For “STTTTTKKPHVLVIPFPQSGHMVPHLDLTHQILLRGATVTVLVTPKNSSYLDALRSLHSPEHFKTLILPFPSHPCIPSGVESLQQLPLEAIVHMFDALSRLHDPLVDFLSRQPPSDLPDAILGSSFLSPWINKVADAFSIKSISFLPINAHSISVMWAQEDRSFFNDLETATTESYGLVINSFYDLEPEFVETVKTRFLNHHRIWTVGPLLPFKAGVDRGGQSSIPPAKVSAWLDSCPEDNSVVYVGFGSQIRLTAEQTAALAAALEKSSVRFIWAVRDAAKKVNSSDNSVEEDVIPAGFEERVKEKGLVIRGWAPQTMILEHRAVGSYLTHLGWGSVLEGMVGGVMLLAWPMQADHFFNTTLIVDKLRAAVRVGENRDSVPDSDKLARILAESAREDLPERVTLMKLREKAMEAIKEGGSSYKNLDELVAEMCL”, the “soluble on expression in E. coli” value was “soluble”.

Take “MGSDKIHHHHHHMSSEMNGTAPFQDQGATDVSLLEDIVRVTKLQPADEAYSITRRGVAALMAQLLEPGAEARKVSKAVLDDMIAEIDRKLSLQMDEILHHPQFQALESSWRSLHFLVDRTDFRENNRIEFLNATKEELLDDFEDAPEVAKSGLYKTVYSAEYGQFGGKPFGAIIGNYDFGPGAQDIKLLQSLAAVAGMAHAPFMAAASPQFFGCDDFTALPNLKDISSILEGPQYAKWQAFRESEDARYVGLALPRFLLRLPYGEATRPAKCFNYEEQVSDSHDRYCWGNAAFAFATRLTESFANFRWCANIIGPQGGGTVHDLPLHQYQAMGAIQTKIPTEVLISERREFELAEGGFIALTMRKGSDNAAFFSANSVQKPKFFGSSKEGKEAELNYKLGLQLPYMFIVSRLAHYLKVIQREHIGTWKERGDLENELNLWIRQYVSEMDNPMPGVRSRRPLRQAEVTVEEVPGEPGWYRVGLKVTPHFKYMGAYFTLSLVGKLDKE”: the “soluble on expression in E. coli” value was “not soluble”. The result for “MKILWIDLNSSYAHSSLALPALHAQIMTDPSIEWEIVSATINENTGMIVDEIYRHRPDILAATTWLFNHEQLMHVASRVKALLPEACLVLGGPEFLGDNEEFLRKNPFVDCVFRGEGEEVFPQWLTCWNHPEQWHTVPGLCYLTPNKEYKDNGIARVLNFAGLVPPEQSRFFNWSKPFVQLETTRGCFNTCAFCVSGGEKPVRTLSIESIRERLQLIHAHGIKNVRVLDRTFNYNPRRAKELLRLFLEFHPDIRFHLEIHPALLSEELKEELSLLPKGLLHLEAGIQSLREPVLEKSRRMGKLSDALDGLRFLCALPNMETHADLIAGLPLYHLHEIFEDVRTLAGYAAGEIQLESLKLLPGTEMRRRAEELGIKYSPLPPYEVLQTHEISVSELQTARQLSRLLDGFYNTPAWQALTRELILNDEQFLHRFLAYLTKANLIDQPMSLEKRGLILYEFCKQNYPEYQIQAAIAWIEAGMSLKKLPAEKVWTKRQIPPATWNIIYGEYKESLRLCFLPADEKGEHGYWFGFESEIQKASPVFKART” reads “not soluble”.
